The values below come from patent US20120070451.

For the data set, the system named is Cavβ2 (Ca2+ beta2 channel accessory subunit), endogenous, mouse heart.

For recombinant active Akt, the “in vitro kinase assay: Cavβ2-immunoprecipitates from cardiac homogenates incubated with recombinant active Akt and [γ-32]ATP” value was “A band corresponding to phosphorylated Cavβ2 was detected only in the presence of the kinase”.
